Our source for the % of cells with BiFC signal (ER + punctate) and % of cells with BiFC signal (only punctate) values is PMC3372476.

This experiment addresses Src-YN (mouse). The experiment in a line: split reporter (BiFC, NanoBiT); BiFC with YFP fragments YC (155-238) and YN (1-154) in co-transfected CHO-K1 cells on fibronectin-coated coverslips; whole cells, fixed (also live cells and TIRFM), wide-field fluorescence; cells scored as background, ER + punctate or only punctate.

Regarding “YC-PTP1BWT (from UniProt P18031 1-435) (enzyme)”, the % of cells with BiFC signal (ER + punctate) turned out to be 86% and the % of cells with BiFC signal (only punctate) was 14%.
